Measured values from article PMC3522258.

T1: CTD (human, UniProt O95786 792-925)
T1 sequence: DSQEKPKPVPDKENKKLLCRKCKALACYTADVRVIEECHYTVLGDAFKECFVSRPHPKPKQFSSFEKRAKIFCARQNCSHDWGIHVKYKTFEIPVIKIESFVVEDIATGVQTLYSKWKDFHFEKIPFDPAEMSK

T2: full-length RIG-I (human, UniProt O95786 1-925)
T2 sequence: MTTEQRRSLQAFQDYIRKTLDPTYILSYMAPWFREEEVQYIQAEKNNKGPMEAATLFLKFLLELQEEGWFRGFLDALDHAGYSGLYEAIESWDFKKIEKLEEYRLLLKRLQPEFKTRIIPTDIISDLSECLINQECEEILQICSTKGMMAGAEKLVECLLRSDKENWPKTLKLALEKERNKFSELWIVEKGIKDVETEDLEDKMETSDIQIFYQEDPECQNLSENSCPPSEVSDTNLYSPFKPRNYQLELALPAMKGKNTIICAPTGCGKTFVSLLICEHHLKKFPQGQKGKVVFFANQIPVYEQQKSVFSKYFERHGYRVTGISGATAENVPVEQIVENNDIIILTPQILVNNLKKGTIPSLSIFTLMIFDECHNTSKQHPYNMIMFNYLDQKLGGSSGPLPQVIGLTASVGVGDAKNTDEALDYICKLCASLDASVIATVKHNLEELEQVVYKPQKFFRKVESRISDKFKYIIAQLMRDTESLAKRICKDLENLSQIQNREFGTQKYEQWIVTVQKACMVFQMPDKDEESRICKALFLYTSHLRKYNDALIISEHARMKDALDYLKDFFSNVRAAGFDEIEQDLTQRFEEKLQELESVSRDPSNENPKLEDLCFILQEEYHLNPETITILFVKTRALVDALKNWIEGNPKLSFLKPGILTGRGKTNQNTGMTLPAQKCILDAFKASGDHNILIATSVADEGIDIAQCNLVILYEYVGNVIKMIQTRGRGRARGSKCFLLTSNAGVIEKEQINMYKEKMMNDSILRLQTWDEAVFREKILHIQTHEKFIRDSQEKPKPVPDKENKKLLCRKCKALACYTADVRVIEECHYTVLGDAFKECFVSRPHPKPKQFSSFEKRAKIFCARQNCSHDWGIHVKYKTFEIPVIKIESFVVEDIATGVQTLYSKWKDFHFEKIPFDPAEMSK

T3: RIG-I (ΔCARDs) (human, UniProt O95786 229-925)
T3 sequence: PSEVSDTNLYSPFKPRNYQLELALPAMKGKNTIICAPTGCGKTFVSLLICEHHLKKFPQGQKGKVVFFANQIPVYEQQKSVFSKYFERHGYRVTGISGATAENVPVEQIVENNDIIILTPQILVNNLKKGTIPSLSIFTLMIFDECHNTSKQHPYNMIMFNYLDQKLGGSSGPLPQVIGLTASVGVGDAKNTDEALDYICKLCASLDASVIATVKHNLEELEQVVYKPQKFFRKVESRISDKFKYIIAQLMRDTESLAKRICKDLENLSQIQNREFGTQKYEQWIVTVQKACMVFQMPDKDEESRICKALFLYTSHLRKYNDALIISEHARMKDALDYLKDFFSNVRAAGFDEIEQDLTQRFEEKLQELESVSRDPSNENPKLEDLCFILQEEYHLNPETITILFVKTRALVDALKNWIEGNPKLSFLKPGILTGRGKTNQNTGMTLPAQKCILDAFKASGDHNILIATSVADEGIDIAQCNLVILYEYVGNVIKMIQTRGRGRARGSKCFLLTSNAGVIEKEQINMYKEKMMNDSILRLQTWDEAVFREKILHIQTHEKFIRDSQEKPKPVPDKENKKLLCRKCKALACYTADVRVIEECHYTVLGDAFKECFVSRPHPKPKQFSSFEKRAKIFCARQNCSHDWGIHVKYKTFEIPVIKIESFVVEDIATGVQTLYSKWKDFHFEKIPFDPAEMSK

T4: HD (helicase domain) (human, UniProt O95786 229-793)
T4 sequence: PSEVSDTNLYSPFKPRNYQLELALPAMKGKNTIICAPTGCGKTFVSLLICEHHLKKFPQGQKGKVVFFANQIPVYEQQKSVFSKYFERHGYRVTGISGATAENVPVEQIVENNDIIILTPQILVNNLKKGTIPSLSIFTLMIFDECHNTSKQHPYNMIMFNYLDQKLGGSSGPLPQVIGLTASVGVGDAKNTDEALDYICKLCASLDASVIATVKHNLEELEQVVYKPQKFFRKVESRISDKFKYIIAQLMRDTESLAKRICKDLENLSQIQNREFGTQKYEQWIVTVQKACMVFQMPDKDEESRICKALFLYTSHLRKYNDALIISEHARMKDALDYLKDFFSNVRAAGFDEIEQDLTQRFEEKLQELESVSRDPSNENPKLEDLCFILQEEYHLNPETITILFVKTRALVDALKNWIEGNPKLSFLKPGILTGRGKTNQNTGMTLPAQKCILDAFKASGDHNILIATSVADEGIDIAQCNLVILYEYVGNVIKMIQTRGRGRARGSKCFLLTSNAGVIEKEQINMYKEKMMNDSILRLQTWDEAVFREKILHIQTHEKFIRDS

B1: 5'-OH 14 dsRNA (dsRNA)
RNA 1: ACCUCCCACCCCCG
RNA 2: CGGGGGUGGGAGGU
modifications: 5'-OH on top strand
B2: 5'-ppp 14 dsRNA (dsRNA)
RNA 1: ACCUCCCACCCCCG
RNA 2: CGGGGGUGGGAGGU
modifications: 5'-triphosphate on top strand
B3: 5'-OH 14 dsRNA, unlabeled competitor (dsRNA)
RNA 1: ACCUCCCACCCCCG
RNA 2: CGGGGGUGGGAGGU
modifications: 5'-OH

Experiments:
[1] = target: T1, CTD; assay: EMSA
[2] = target: T2, full-length RIG-I; assay: EMSA
[3] = target: T3, RIG-I (ΔCARDs); assay: EMSA
[4] = target: T4, HD (helicase domain); assay: EMSA
[5] = target: T3, RIG-I (ΔCARDs); assay: competition

| Binder | Kd [1] [nM] | Kd [2] [nM] | Kd [3] [nM] | Kd [4] [nM] | Ki [5] [nM] |
| --- | --- | --- | --- | --- | --- |
| B1 | 5900 ± 750 | 20 ± 3 | 3.6 ± 0.9 |  |  |
| B2 | 0.5 ± 0.06 | 0.159 ± 0.02 | 0.041 ± 0.002 | 760 ± 20 |  |
| B3 |  |  |  |  | 13 |
